The chains are these.
B1: THAP1; numbered along this chain (parent)
chain: MVQSCSAYGCKNRYDKDKPVSFHKFPLTRPSLCKEWEAAVRRKNFKPTKYSSICSEHFTPDCFKRECNNKLLKENAVPTIFLCTEPHDKKEDLLEPQEQLPPPPLPPPVSQVDAAIGLLMPPLQTPVNLSVFCDHNYTVEDTMHQRKRIHQLEQQVEKLRKKLKTAQQRCRRQERQLEKLKEVVHFQKEKDDVSERGYVILPNDYFEIVEVPA

The variants in the series derive from B1. Kind of series: THAP1 transcriptional activity (GFP+/GFP- enrichment relative to wild-type constructs) (ratio to WT); higher = more THAP1 activity (PSMB5 reporter activation). Conditions: with PSMB5 promoter-GFP reporter. The procedure, abridged:
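In duplicate, a lentivirus-delivered library with every residue from 2–213 of human THAP1 changed to all 20 amino acids was introduced at MOI ~0.3 into THAP1-knockout HEK-293T cells carrying endogenous PSMB5 tagged by mClover3 knock-in. Five days on, BFP+ cells were binned as GFP-dim or GFP-bright, and Illumina sequencing of genomic DNA amplicons counted each variant. Activity is the bright/dim read fold change, averaged over replicates and scaled to the mean of wild-type synonymous constructs.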
Take MVQSSSAYGCKNRYDKDKPVSFHKFPLTRPSLCKEWEAAVRRKNFKPTKYSSICSEHFTPDCFKRECNNKLLKENAVPTIFLCTEPHDKKEDLLEPQEQLPPPPLPPPVSQVDAAIGLLMPPLQTPVNLSVFCDHNYTVEDTMHQRKRIHQLEQQVEKLRKKLKTAQQRCRRQERQLEKLKEVVHFQKEKDDVSERGYVILPNDYFEIVEVPA [C5S]: the THAP1 transcriptional activity turned out to be 0.0878. Under MVQSCSAYGCKNRYDKDKPVSFHKFPLTRPSLCKEWEAAVRRKNFKPTKYSSICSEHFTPDCFKRECNNKLLKENAVPTIFLCTEPHDKKEDLLEPQEQLPPPPLPPPVSQVDAAIGLLMPPLQTPVNLSVFCDHNYTVEDTMHQRKRIHQLEQQVEKLRKKLKTAQQRCRRQERQLEKLKEVVHFQKEKDDVSERGYVILPNDYFEIVRVPA [E210R] stands 0.747. Under MVQSCSAYGCKNRYDKDKPVSFHKFPLTRPSLCKEWEAAVRRKNFKPTKYSSICSEHFTPDCFKRECNNKLLKENAVPTIFLCTEPHDKKEDLLEPQEQLPPPPLPPPVSQVDAAIGLLMPPLQTPVNLSVFCDQNYTVEDTMHQRKRIHQLEQQVEKLRKKLKTAQQRCRRQERQLEKLKEVVHFQKEKDDVSERGYVILPNDYFEIVEVPA [H135Q] stands 0.151. Under MVQSCSAYGCKNRYDKDKPVSFHKFPLTRPSLCKEWEAAVRRKNFKPTKYSSICSEHFTPDCFKRECNNKLLKENAVPTIFLCTEPHDKKEDLLEPQEQLPPPPLPPPVSQVDAAIGLLMPPLQTPVNLSVFCDRNYTVEDTMHQRKRIHQLEQQVEKLRKKLKTAQQRCRRQERQLEKLKEVVHFQKEKDDVSERGYVILPNDYFEIVEVPA [H135R] stands 0.0891. As to MVQSCSAYGCKNRYDKDKPVSFHKFPLTRPSLCKEWEAAVRRKNFKPTKYSSICSEHFTPDCFKRECNNKLLKENAVPTIFLCTEPHDKKEDLLEPQEQLPPPPLPPPVSQVPAAIGLLMPPLQTPVNLSVFCDHNYTVEDTMHQRKRIHQLEQQVEKLRKKLKTAQQRCRRQERQLEKLKEVVHFQKEKDDVSERGYVILPNDYFEIVEVPA [D113P], the THAP1 transcriptional activity came to 0.638. As to MVQSCSAYGCKNRYDKDKPVSFHKFPLTRPSLCKEWEAAVRRKNFKPTKYSSICSEHFTPDCFKRECNNKLLKENAVPTIFLCTEPHDKKEDLLEPQEQLPPPPLPPPVSQVDAAIGLLMPPLQTPVNLSVFCDHNYTVEDTMHQRKRIHQLEQQVEKLRKKLKTAQQRCRRQERQLEKLKEVVYFQKEKDDVSERGYVILPNDYFEIVEVPA [H185Y], the THAP1 transcriptional activity is 0.905. Consider MVQSCSAYGCKNRYDKDKPVSFHKFPLTRPSLCKEWEAAVRRKNFKPTKYSSICSEHFTPDCFKRECNNKLLKENAVPTIFLCTEPHDKKEDLLEPQEQLFPPPLPPPVSQVDAAIGLLMPPLQTPVNLSVFCDHNYTVEDTMHQRKRIHQLEQQVEKLRKKLKTAQQRCRRQERQLEKLKEVVHFQKEKDDVSERGYVILPNDYFEIVEVPA [P101F], for which the THAP1 transcriptional activity is 0.64. Under MVQSCSAYGCKNRYDKDKPVSFVKFPLTRPSLCKEWEAAVRRKNFKPTKYSSICSEHFTPDCFKRECNNKLLKENAVPTIFLCTEPHDKKEDLLEPQEQLPPPPLPPPVSQVDAAIGLLMPPLQTPVNLSVFCDHNYTVEDTMHQRKRIHQLEQQVEKLRKKLKTAQQRCRRQERQLEKLKEVVHFQKEKDDVSERGYVILPNDYFEIVEVPA [H23V] stands 0.0823; under MVQSCEAYGCKNRYDKDKPVSFHKFPLTRPSLCKEWEAAVRRKNFKPTKYSSICSEHFTPDCFKRECNNKLLKENAVPTIFLCTEPHDKKEDLLEPQEQLPPPPLPPPVSQVDAAIGLLMPPLQTPVNLSVFCDHNYTVEDTMHQRKRIHQLEQQVEKLRKKLKTAQQRCRRQERQLEKLKEVVHFQKEKDDVSERGYVILPNDYFEIVEVPA [S6E], 0.153; under MVQSCYAYGCKNRYDKDKPVSFHKFPLTRPSLCKEWEAAVRRKNFKPTKYSSICSEHFTPDCFKRECNNKLLKENAVPTIFLCTEPHDKKEDLLEPQEQLPPPPLPPPVSQVDAAIGLLMPPLQTPVNLSVFCDHNYTVEDTMHQRKRIHQLEQQVEKLRKKLKTAQQRCRRQERQLEKLKEVVHFQKEKDDVSERGYVILPNDYFEIVEVPA [S6Y], 0.202.

As for MVQSCSAYGCKNRYDKDKPVSFHKFPLTRPSLCKEWEAAVRRKNFKPTKYSSICSEHFTPDCFKRECNNKLLKENAVPTIFLCTEPHDKKEDLLEPQEQLPPPPLPPPVSQVDAAIGLMMPPLQTPVNLSVFCDHNYTVEDTMHQRKRIHQLEQQVEKLRKKLKTAQQRCRRQERQLEKLKEVVHFQKEKDDVSERGYVILPNDYFEIVEVPA [L119M], the THAP1 transcriptional activity was 0.525. Under MVQSCSAYGCKNRYDKDKPVSFHKFPLTRPSLCKEWEAAVRRKNFKPTKYSSICSEHFTPDCFKRECNNKLLKENAVPTIFLCTEPHDKKEDLLEPQEQLPPPPLPPPVSQVDAAIGLLMPPLQTPVNLSVFCDHNYTVEDTMHQRKRIHQLEQQVEKLRKKLKTAQQRCRRQERQLEKLKEVVHFQKEKDDVGERGYVILPNDYFEIVEVPA [S194G] stands 1.35; under MVQSCSAYGCKNRYDKDKPVSYHKFPLTRPSLCKEWEAAVRRKNFKPTKYSSICSEHFTPDCFKRECNNKLLKENAVPTIFLCTEPHDKKEDLLEPQEQLPPPPLPPPVSQVDAAIGLLMPPLQTPVNLSVFCDHNYTVEDTMHQRKRIHQLEQQVEKLRKKLKTAQQRCRRQERQLEKLKEVVHFQKEKDDVSERGYVILPNDYFEIVEVPA [F22Y], 0.288; under MVQSCSAYGCKNRYDKDKPVSFHKFPLTRPSLCKEWEAAVRRKNFKPTKYSSICSEHFTPDCFKRECNNKLLKENAVPTIFLCTEPHDKKEDLLEPQEQLPPPPLPPPVSQVDAAIGLLYPPLQTPVNLSVFCDHNYTVEDTMHQRKRIHQLEQQVEKLRKKLKTAQQRCRRQERQLEKLKEVVHFQKEKDDVSERGYVILPNDYFEIVEVPA [M120Y], 0.474.

For the origin of these results see the supplement of paper PMC11811203.
